Data from US20050064507.

Legend:
[1] = target: T1, … peptide KKPFKLSGLSFKRNRKE (SEQ ID NO:88) (not fully specified)
T1 chain: KKPFKLSGLSFKRNRKE

[2] = target: T2, MacMARCKS peptide KKKFSFKKPFKLSGLSFKRN (SEQ ID NO:162) (not fully specified)
T2 chain: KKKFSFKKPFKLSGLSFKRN

[3] = target: T3, GABA A receptor beta 2 peptide ERHVAQKKSRLRRRASQLKI (SEQ ID NO:142) (not fully specified)
T3 chain: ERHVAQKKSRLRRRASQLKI

[4] = target: T4, ubiquitin specific protease 8 peptide RARRDSLKKIEIW (SEQ ID NO:136) (not fully specified)
T4 chain: RARRDSLKKIEIW

[5] = target: T5, p47phox peptide QAQRQIKRGAPPRRSSIRNA (SEQ ID NO:146) (not fully specified)
T5 chain: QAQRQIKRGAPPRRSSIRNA

[6] = target: T6, MARCKS peptide KKKRFSFKKSFKLSGFSFKK (SEQ ID NO:111) (not fully specified)
T6 chain: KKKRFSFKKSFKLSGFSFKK

[7] = target: T7, splicing factor, arginine/serine-rich 4 peptide RSRSRSRSKSKDKRKSRKRS (SEQ ID NO:134) (not fully specified)
T7 chain: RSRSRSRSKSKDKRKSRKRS

[8] = target: T8, NEURL peptide ALRRPSLRREADD (SEQ ID NO:105) (not fully specified)
T8 chain: ALRRPSLRREADD

[9] = target: T9, PPP1R14A peptide QKRHARVTVKYDRRE (SEQ ID NO:107) (not fully specified)
T9 chain: QKRHARVTVKYDRRE

[10] = target: T10, MYBPC3 peptide LLKKRDSFRTPRDSKLE (SEQ ID NO:103) (not fully specified)
T10 chain: LLKKRDSFRTPRDSKLE

[11] = target: T11, PSCDBP peptide LSSMFGTLPRKSRKGSVRKQ (SEQ ID NO:144) (not fully specified)
T11 chain: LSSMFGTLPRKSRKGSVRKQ

[12] = target: T12, PLEK peptide KFARKSTRRSIRLPE (SEQ ID NO:78) (not fully specified)
T12 chain: KFARKSTRRSIRLPE

[13] = target: T13, PARIS1 peptide EYLERRASRRRAV (SEQ ID NO:89) (not fully specified)
T13 chain: EYLERRASRRRAV

[14] = target: T14, NIK peptide TEGKMARVAWKGKRRSKARK (SEQ ID NO:164) (not fully specified)
T14 chain: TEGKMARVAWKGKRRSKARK

[15] = target: T15, dag kinase iota peptide NRKKKRTSFKRKA (SEQ ID NO:115) (not fully specified)
T15 chain: NRKKKRTSFKRKA

[16] = target: T16, PLEC1 peptide KRERKTSSKSSVRKRR (SEQ ID NO:81) (not fully specified)
T16 chain: KRERKTSSKSSVRKRR

[17] = target: T17, GABRB2 peptide QKKSRLRRRASQLKI (SEQ ID NO:84) (not fully specified)
T17 chain: QKKSRLRRRASQLKI

[18] = target: T18, NR4A3 peptide KEVVRTDSLKGRRGR (SEQ ID NO:109) (not fully specified)
T18 chain: KEVVRTDSLKGRRGR

[19] = target: T19, M1 muscarinic receptor peptide RWDKRRWRKIPKRPGSVHRT (SEQ ID NO:155) (not fully specified)
T19 chain: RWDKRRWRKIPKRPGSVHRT

[20] = target: T20, ASIP peptide KKRSSKKEASMKKVVRP (SEQ ID NO:97) (not fully specified)
T20 chain: KKRSSKKEASMKKVVRP

[21] = target: T21, PARIS1 peptide RELEQLKAEYLERRASRRRA (SEQ ID NO:148) (not fully specified)
T21 chain: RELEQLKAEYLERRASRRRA

[22] = target: T22, fit1 peptide VQMTWSYPDEKNKRASVRRR (SEQ ID NO:158) (not fully specified)
T22 chain: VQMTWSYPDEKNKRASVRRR

[23] = target: T23, PLD1 peptide KYKAFIRIPIPTRRHTFRRQ (SEQ ID NO:161) (not fully specified)
T23 chain: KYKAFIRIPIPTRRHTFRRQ

[24] = target: T24, dag kinase zeta peptide RPQNTLKASKKKKRASFKRK (SEQ ID NO:118) (not fully specified)
T24 chain: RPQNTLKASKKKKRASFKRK

[25] = target: T25, PRKCM peptide VHYTSKDTLRKRHYWR (SEQ ID NO:91) (not fully specified)
T25 chain: VHYTSKDTLRKRHYWR

[26] = target: T26, NF1 peptide AGSFKRNSIKKIV (SEQ ID NO:102) (not fully specified)
T26 chain: AGSFKRNSIKKIV

[27] = target: T27, DGKZ peptide KKKKRASFKRKSSKKG (SEQ ID NO:77) (not fully specified)
T27 chain: KKKKRASFKRKSSKKG

[28] = target: T28, MLK3 peptide HVRRRRGTFKRSKLRARD (SEQ ID NO:76) (not fully specified)
T28 chain: HVRRRRGTFKRSKLRARD

[29] = target: T29, pleckstrin 1 peptide KAIKAIEGGQKFARKSTRRS (SEQ ID NO:126) (not fully specified)
T29 chain: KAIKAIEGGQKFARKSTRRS

B1: PKC-zeta (protein)
chain: MPSRTGPKMEGSGGRVRLKAHYGGDIFITSVDAATTFEELCEEVRDMCRLHQQHPLTLKWVDSEGDPCTVSSQMELEEAFRLARQCRDEGLIIHVFPSTPEQPGLPCPGEDKSIYRRGARRWRKLYRANGHLFQAKRFNRRAYCGQCSERIWGLARQGYRCINCKLLVHKRCHGLVPLTCRKHMDSVMPSQEPPVDDKNEDADLPSEETDGIAYISSSRKHDSIKDDSEDLKPVIDGMDGIKISQGLGLQDFDLIRVIGRGSYAKVLLVRLKKNDQIYAMKVVKKELVHDDEDIDWVQTEKHVFEQASSNPFLVGLHSCFQTTSRLFLVIEYVNGGDLMFHMQRQRKLPEEHARFYAAEICIALNFLHERGIIYRDLKLDNVLLDADGHIKLTDYGMCKEGLGPGDTTSTFCGTPNYIAPEILRGEEYGFSVDWWALGVLMFEMMAGRSPFDIITDNPDMNTEDYLFQVILEKPIRIPRFLSVKASHVLKGFLNKDPKERLGCRPQTGFSDIKSHAFFRSIDWDLLEKKQALPPFQPQITDDYGLDNFDTQFTSEPVQLTPDDEDAIKRIDQSEFEGFEYINPLLLSTEESV
- in vitro phosphorylation (% of best substrate) [1]: 4
- in vitro phosphorylation, 1 uM peptide (% of best substrate) [2]: 7
- in vitro phosphorylation, 10 uM peptide (% of best substrate) [2]: 4
- in vitro phosphorylation, 1 uM peptide (% of best substrate) [3]: 22
- in vitro phosphorylation, 10 uM peptide (% of best substrate) [3]: 37
- in vitro phosphorylation, 1 uM peptide (% of best substrate) [4]: 6
- in vitro phosphorylation, 10 uM peptide (% of best substrate) [4]: 9
- in vitro phosphorylation, 1 uM peptide (% of best substrate) [5]: 32
- in vitro phosphorylation, 10 uM peptide (% of best substrate) [5]: 56
- in vitro phosphorylation (% of best substrate) [6]: 9
- in vitro phosphorylation, 1 uM peptide (% of best substrate) [7]: 5
- in vitro phosphorylation, 10 uM peptide (% of best substrate) [7]: 5
- in vitro phosphorylation (% of best substrate) [8]: 4
- in vitro phosphorylation (% of best substrate) [9]: 1
- in vitro phosphorylation (% of best substrate) [10]: 8
- in vitro phosphorylation, 1 uM peptide (% of best substrate) [11]: 16
- in vitro phosphorylation, 10 uM peptide (% of best substrate) [11]: 54
- in vitro phosphorylation (% of best substrate) [12]: 100
- in vitro phosphorylation (% of best substrate) [13]: 14
- in vitro phosphorylation, 1 uM peptide (% of best substrate) [14]: 3
- in vitro phosphorylation, 10 uM peptide (% of best substrate) [14]: 2
- in vitro phosphorylation, 1 uM peptide (% of best substrate) [15]: 11
- in vitro phosphorylation, 10 uM peptide (% of best substrate) [15]: 10
- in vitro phosphorylation (% of best substrate) [16]: 10
- in vitro phosphorylation (% of best substrate) [17]: 19
- in vitro phosphorylation (% of best substrate) [18]: 2
- in vitro phosphorylation, 1 uM peptide (% of best substrate) [19]: 19
- in vitro phosphorylation, 10 uM peptide (% of best substrate) [19]: 6
- in vitro phosphorylation (% of best substrate) [20]: 1
- in vitro phosphorylation, 1 uM peptide (% of best substrate) [21]: 20
- in vitro phosphorylation, 10 uM peptide (% of best substrate) [21]: 20
- in vitro phosphorylation, 1 uM peptide (% of best substrate) [22]: 11
- in vitro phosphorylation, 10 uM peptide (% of best substrate) [22]: 72
- in vitro phosphorylation, 1 uM peptide (% of best substrate) [23]: 15
- in vitro phosphorylation, 10 uM peptide (% of best substrate) [23]: 9
- in vitro phosphorylation, 1 uM peptide (% of best substrate) [24]: 46
- in vitro phosphorylation, 10 uM peptide (% of best substrate) [24]: 57
- in vitro phosphorylation (% of best substrate) [25]: 12
- in vitro phosphorylation (% of best substrate) [26]: 2
- in vitro phosphorylation (% of best substrate) [27]: 60
- in vitro phosphorylation (% of best substrate) [28]: 41
- in vitro phosphorylation, 1 uM peptide (% of best substrate) [29]: 46
- in vitro phosphorylation, 10 uM peptide (% of best substrate) [29]: 56

B2: PKC-epsilon (protein)
chain: MVVFNGLLKIKICEAVSLKPTAWSLRHAVGPRPQTFLLDPYIALNVDDSRIGQTATKQKTNSPAWHDEFVTDVCNGRKIELAVFHDAPIGYDDFVANCTIQFEELLQNGSRHFEDWIDLEPEGRVYVIIDLSGSSGEAPKDNEERVFRERMRPRKRQGAVRRRVHQVNGHKFMATYLRQPTYCSHCRDFIWGVIGKQGYQCQVCTCVVHKRCHELIITKCAGLKKQETPDQVGSQRFSVNMPHKFGIHNYKVPTFCDHCGSLLWGLLRQGLQCKVCKMNVHRRCETNVAPNCGVDARGIAKVLADLGVTPDKITNSGQRRKKLIAGAESPQPASGSSPSEEDRSKSAPTSPCDQEIKELENNIRKALSFDNRGEEHRAASSPDGQLMSPGENGEVRQGQAKRLGLDEFNFIKVLGKGSFGKVMLAELKGKDEVYAVKVLKKDVILQDDDVDCTMTEKRILALARKHPYLTQLYCCFQTKDRLFFVMEYVNGGDLMFQIQRSRKFDEPRSRFYAAEVTSALMFLHQHGVIYRDLKLDNILLDAEGHCKLADFGMCKEGILNGVTTTTFCGTPDYIAPEILQELEYGPSVDWWALGVLMYEMMAGQPPFEADNEDDLFESILHDDVLYPVWLSKEAVSILKAFMTKNPHKRLGCVASQNGEDAIKQHPFFKEIDWVLLEQKKIKPPFKPRIKTKRDVNNFDQDFTREEPVLTLVDEAIVKQINQEEFKGFSYFGEDLMP
- in vitro phosphorylation (% of best substrate) [1]: 44
- in vitro phosphorylation, 1 uM peptide (% of best substrate) [2]: 19
- in vitro phosphorylation, 1 uM peptide (% of best substrate) [3]: 28
- in vitro phosphorylation, 1 uM peptide (% of best substrate) [4]: 33
- in vitro phosphorylation, 1 uM peptide (% of best substrate) [5]: 28
- in vitro phosphorylation (% of best substrate) [6]: 12
- in vitro phosphorylation, 1 uM peptide (% of best substrate) [7]: 32
- in vitro phosphorylation (% of best substrate) [8]: 29
- in vitro phosphorylation (% of best substrate) [9]: 7
- in vitro phosphorylation (% of best substrate) [10]: 21
- in vitro phosphorylation, 1 uM peptide (% of best substrate) [11]: 24
- in vitro phosphorylation (% of best substrate) [12]: 84
- in vitro phosphorylation (% of best substrate) [13]: 45
- in vitro phosphorylation, 1 uM peptide (% of best substrate) [14]: 12
- in vitro phosphorylation, 1 uM peptide (% of best substrate) [15]: 91
- in vitro phosphorylation (% of best substrate) [16]: 59
- in vitro phosphorylation (% of best substrate) [17]: 52
- in vitro phosphorylation (% of best substrate) [18]: 26
- in vitro phosphorylation, 1 uM peptide (% of best substrate) [19]: 26
- in vitro phosphorylation (% of best substrate) [20]: 16
- in vitro phosphorylation, 1 uM peptide (% of best substrate) [21]: 33
- in vitro phosphorylation, 1 uM peptide (% of best substrate) [22]: 11
- in vitro phosphorylation, 1 uM peptide (% of best substrate) [23]: 21
- in vitro phosphorylation, 1 uM peptide (% of best substrate) [24]: 89
- in vitro phosphorylation (% of best substrate) [25]: 49
- in vitro phosphorylation (% of best substrate) [26]: 14
- in vitro phosphorylation (% of best substrate) [27]: 71
- in vitro phosphorylation (% of best substrate) [28]: 100
- in vitro phosphorylation, 1 uM peptide (% of best substrate) [29]: 69
